Assay results taken from PMC6109925, “Structural and functional analysis of cystatin E reveals enzymologically relevant dimer and amyloid fibril states” (The Journal of Biological Chemistry, 2018).
Blank lines part the entries; values can stand above or below the molecule they belong to.

Experiments:
[1] = target: human legumain, wild type, activated (human) (UniProt Q99538); test: SEC; S200 10/300 GL; legumain (0.5 mg/ml) incubated with dimeric hCE 1:1 (1 AEP and 1 hCE dimer) or monomeric hCE 1:2 at pH 5.5 for 10 min on ice; fractions on SDS-PAGE; conditions: scale: hCE chains per legumain
[2] = target: human legumain, wild type, activated (human) (UniProt Q99538); test: enzyme inhibition kinetics (Morrison equation for tight binding inhibitors); 50 mM citric acid pH 5.5, 100 mM NaCl, 0.05% Tween 20; 100 μM Z-AAN-AMC, 0.01 to 5 nM hCE, 2 nM legumain, 37 °C; triplicates
[3] = target: glycosylated human cystatin E (human) (UniProt Q15828); test: SEC; S75 10/300 GL, 20 mM citric acid pH 5.5, 100 mM NaCl; sample incubated 10 min at ≥70 °C (70, 80 or 85 °C), pH 5.5, then chilled on ice; monomer to dimer
[4] = target: human cystatin E, full-length wild type, monomeric (human) (UniProt Q15828); test: thioflavin T fluorescence; fibril formation after 10 min at 80 °C, 10 mg/ml, 50 mM citric acid, 100 mM NaCl (pH 3–6) or 50 mM Tris, 100 mM NaCl (pH 7.0); ThT fluorescence at 482 nm
[5] = target: human cystatin E, full-length wild type, monomeric (human) (UniProt Q15828); test: SEC; S75 10/300 GL; WT cystatin E incubated at 60 °C in citric acid buffer at pH 3.0 before injection; monomer to dimer
[6] = target: human cystatin E, full-length wild type, monomeric (human) (UniProt Q15828); test: SEC; S75 10/300 GL, 20 mM citric acid pH 5.5, 100 mM NaCl; sample incubated 10 min at ≥70 °C (70, 80 or 85 °C), pH 5.5, then chilled on ice; monomer to dimer
[7] = target: the molecule itself; test: SEC; S75 10/300 GL, 20 mM citric acid pH 5.5, 100 mM NaCl, 250 μl sample; no destabilising heat (ΔhCE kept at 4 °C and 37 °C before injection); oligomerisation state
[8] = target: the molecule itself; test: SEC; S75 10/300 GL, 20 mM citric acid pH 5.5, 100 mM NaCl; sample incubated 10 min at ≥70 °C (70, 80 or 85 °C), pH 5.5, then chilled on ice; monomer to dimer

Chain of human legumain, wild type, activated (human) (Q99538 18-323): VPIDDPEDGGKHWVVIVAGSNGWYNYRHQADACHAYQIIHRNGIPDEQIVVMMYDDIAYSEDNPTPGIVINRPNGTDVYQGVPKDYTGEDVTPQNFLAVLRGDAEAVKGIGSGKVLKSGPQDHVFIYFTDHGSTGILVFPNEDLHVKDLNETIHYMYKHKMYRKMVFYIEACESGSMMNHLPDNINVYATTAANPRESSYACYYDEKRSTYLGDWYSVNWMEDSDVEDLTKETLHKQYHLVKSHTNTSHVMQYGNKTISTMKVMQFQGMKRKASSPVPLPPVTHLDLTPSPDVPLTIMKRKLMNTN

Molecule: glycosylated human cystatin E (from UniProt Q15828 29-149) (natural protein)
stoichiometry N [3]: 2

B1: N-terminally truncated human cystatin E, Δ(Arg4–Leu13)hCE (domain or fragment)
chain: MELSPDDPQVQKAAQAAVASYNMGSNSIYYFRDTHIIKAQSQLVAGIKYFLTMEMGSTDCRKTRVTGDHVDLTTCPLAAGAQQEKLRCDFEVLVVPWQNSSQLLKHNCVQM
stoichiometry N [7]: 2

B2: human cystatin C, wild type (natural protein, UniProt P01034 27-146, looked up)
chain: SSPGKPPRLVGGPMDASVEEEGVRRALDFAVGEYNKASNDMYHSRALQVVRARKQIVAGVNYFLDVELGRTTCTKTQPNLDNCPFHDQPHLKRKAFCSFQIYAVPWQGTMTLSKSTCQDA
notes: N terminus Ser1 after removal of the pelB leader. numbers count on: the mature protein; Called 'untagged hCC' in the pull-down (it has no Strep-tag), while the methods give a C-terminal His6 tag for the expression constructs; also called hCC; WT cystatin C; source: E. coli Bl21(DE3), periplasm (pelB leader), purified (nickel-nitrilotriacetic acid resin, SEC)
stoichiometry N [8]: 2

Now from value to molecule:

stoichiometry N [1]: 2
Ki [2]: 0.0135 nM
Molecule: dimeric human cystatin E (domain-swapped dimer) (from UniProt Q15828 29-149) (complex)

fold increase in ThT signal after incubation at pH 3.0 [4]: 4 fold
Ki [2]: 0.0107 nM
stoichiometry N [5]: 2
percent converted to the dimer at 70 °C [6]: > 90%
stoichiometry N [6]: 2
Molecule: human cystatin E, full-length wild type, monomeric (from UniProt Q15828 29-149) (natural protein)
